The conditions of series [1]: endogenous peptide; cited from earlier work. The procedure: Neurotensin receptor imaging has emerged as a promising target for imaging and therapy. The endogenous neurotensin peptide has a short half-life in blood (<6 min), limiting its direct radiolabeling and use. Most developments in neurotensin receptor imaging have been focused on increasing serum stability and improving specificity for NTSR1 [1]. Previously, neurotensin receptor binding peptides have been investigated as imaging and therapeutic agents when radiolabeled with technetium-99m, indium-111, gallium-68, copper-64, actinium-225, and leutetium-177 [10, 11, 12, 13]. Specif ...

Series [2] is described as follows: in vivo. To be noted: male, athymic nude, mouse, total radioactivity. On the procedure:
All animal procedures were approved by the University of Alabama at Birmingham IACUC, animal protocol number IACUC-22618. Male athymic nude mice (Charles River, Wilmington, MA, USA) were allowed to acclimate for at least 72 h before any procedures were performed. For tumor implantation, mice were subcutaneously injected with 300,000 HT29 cells 3 weeks before imaging. […] Mice were imaged on a GNEXT microPET/CT (Sophie, Springfield, VA, USA). After the last imaging timepoint, mice were euthanized and organs were taken for biodistribution. Organ weights and radioactive counting were collected on a Hidex gamma counter (Lablogic, Clair-Mel City, FL, USA). Images were processed and SUVs were calculated using VivoQuant software (Invicro, Boston, MA, USA).

A value given as a limit tells only on which side of the number the result lay.

For the compound “neurotensin peptide: 13-amino-acid peptide which binds to neurotensin receptors 1–3”, in series [1], the half-life in blood is under 6 min.
In the case of `CC(=O)N[C@@H](CCCCNC(=O)CN1CCN(CC(=O)O)CCN(CC(=O)O)CC1)C(=O)N1CCC[C@H]1C(=O)N(C)[C@@H](CCCNC(=N)N)C(=O)N[C@@H](CCCNC(=N)N)C(=O)N1CCC[C@H]1C(=O)N[C@@H](Cc1ccc(O)cc1)C(=O)N[C@H](C(=O)N[C@@H](CC(C)C)C(=O)O)C(C)(C)C` [[^64Cu] Cu-NOTA-NT-20.3, metal not drawn], in series [2] (liver SUV), the SUV at 1 h amounted to 0.123 ± 0.029 SUV, the SUV at 4 h stood at 0.178 ± 0.042 SUV and the SUV at 24 h came to 0.168 ± 0.056 SUV.
Take `CC(=O)N[C@@H](CCCCNC(=O)CN1CCN(CC(=O)O)CCN(CC(=O)O)CC1)C(=O)N1CCC[C@H]1C(=O)N(C)[C@@H](CCCNC(=N)N)C(=O)N[C@@H](CCCNC(=N)N)C(=O)N1CCC[C@H]1C(=O)N[C@@H](Cc1ccc(O)cc1)C(=O)N[C@H](C(=O)N[C@@H](CC(C)C)C(=O)O)C(C)(C)C` [[^55Co] Co-NOTA-NT-20.3]: in series [2] (1 ug, heart SUV), the SUV at 1 h amounted to 0.033 ± 0.002 SUV, the SUV at 4 h is 0.015 ± 0.002 SUV and the SUV at 24 h is 0.004 ± 0.001 SUV.
